The text below walks through data of publication PMC5353611.

For assay [1], the target named is His-tagged C-propeptide of the human procollagen α1(I) chain (C1A1His), chain of homo-CPI (human). Kind of assay: SDS-PAGE (non-reducing and reducing) + MALDI-TOF mass spectrometry; purified homo-CPI; ~85 kDa non-reducing, 30 kDa reducing; disulfide-bonded trimer.
Assay [2] addresses His-tagged C-propeptide of the human procollagen α2(I) chain (C1A2His) (human). Put plainly: co-purification (Co2+ affinity by the His-tag of the α2 chain, gel filtration) with SDS-PAGE and MALDI-TOF mass spectrometry; α1 and α2 C-propeptides co-expressed in HEK 293T (plasmids 2:1); hetero-CPI separated from untagged homo-CPI by the His-tag of the α2 chain; with or without removal of the tag by TEV protease; Superdex S200. In general terms: SEC sorts molecules by how far they enter the pores of the column.

What is called stoichiometry N is the number of molecules, sites or subunits per partner or assembly.

Take “His-tagged C-propeptide of the human procollagen α1(I) chain (C1A1His), chain of homo-CPI (domain or fragment)”: the stoichiometry N in assay [1] came out at 3.

The substance “Non-tagged C-propeptide of the human procollagen α1(I) chain (C1A1) (domain or fragment)” showed a stoichiometry N (α1 chains per α2 chain) in assay [2] of 2.
